B1: Histone-lysine N-methyltransferase SETD7 (Homo sapiens), Q8WTS6 (parent)
chain: MDSDDEMVEEAVEGHLDDDGLPHGFCTVTYSSTDRFEGNFVHGEKNGRGKFFFFDGSTLEGYYVDDALQGQGVYTYEDGGVLQGTYVDGELNGPAQEYDTDGRLIFKGQYKDNIRHGVCWIYYPDGGSLVGEVNEDGEMTGEKIAYVYPDERTALYGKFIDGEMIEGKLATLMSTEEGRPHFELMPGNSVYHFDKSTSSCISTNALLPDPYESERVYVAESLISSAGEGLFSKVAVGPNTVMSFYNGVRITHQEVDSRDWALNGNTLSLDEETVIDVPEPYNHVSKYCASLGHKANHSFTPNCIYDMFVHPRFGPIKCIRTLRAVEADEELTVAYGYDHSPPGKSGPEAPEWYQVELKAFQATQQK
B2: Forkhead box protein O3 (Mus musculus), Q9WVH4 (parent)
chain: MAEAPASPVPLSPLEVELDPEFEPQSRPRSCTWPLQRPELQASPAKPSGETAADSMIPEEDDDEDDEDGGGRASSAMVIGGGVSSTLGSGLLLEDSAMLLAPGGQDLGSGPASAAGALSGGTPTQLQPQQPLPQPQPGAAGGSGQPRKCSSRRNAWGNLSYADLITRAIESSPDKRLTLSQIYEWMVRCVPYFKDKGDSNSSAGWKNSIRHNLSLHSRFMRVQNEGTGKSSWWIINPDGGKSGKAPRRRAVSMDNSNKYTKSRGRAAKKKAALQAAPESADDSPSQLSKWPGSPTSRSSDELDAWTDFRSRTNSNASTVSGRLSPILASTELDDVQDDDGPLSPMLYSSSASLSPSVSKPCTVELPRLTDMAGTMNLNDGLAENLMDDLLDNIALPPSQPSPPGGLMQRGSSFPYTAKSSGLGSPTGSFNSTVFGPSSLNSLRQSPMQTIQENRPATFSSVSHYGNQTLQDLLASDSLSHSDVMMTQSDPLMSQASTAVSAQNARRNVMLRNDPMMSFAAQPTQGSLVNQNLLHHQHQTQGALGGSRALSNSVSNMGLSDSSSLGSAKHQQQSPASQSMQTLSDSLSGSSLYSASANLPVMGHDKFPSDLDLDMFNGSLECDMESIIRSELMDADGLDFNFDSLISTQNVVGLNVGNFTGAKQASSQSWVPG
partner: B1 chain

Variants of: B1
Settings: with foxo3_mouse Foxo3, Q9WVH4

Row | effect of a mutation on the interaction | Variant
1 | disrupting interaction | MDSDDEMVEEAVEGHLDDDGLPHGFCTVTYSSTDRFEGNFVHGEKNGRGKFFFFDGSTLEGYYVDDALQGQGVYTYEDGGVLQGTYVDGELNGPAQEYDTDGRLIFKGQYKDNIRHGVCWIYYPDGGSLVGEVNEDGEMTGEKIAYVYPDERTALYGKFIDGEMIEGKLATLMSTEEGRPHFELMPGNSVYHFDKSTSSCISTNALLPDPYESERVYVAESLISSAGEGLFSKVAVGPNTVMSFYNGVRITHQEVDSRDWALNGNTLSLDEETVIDVPEPYNHVSKYCASLGHKANASFTPNCIYDMFVHPRFGPIKCIRTLRAVEADEELTVAYGYDHSPPGKSGPEAPEWYQVELKAFQATQQK [H297A]

Variants of: B2
Settings: with setd7_human SETD7, Q8WTS6

Row | effect of a mutation on the interaction | Variant
2 | disrupting interaction | K270R
